Test results as given in patent US20260325600A1, “FORMULATIONS FOR INTRAOCULAR DELIVERY OF PEPTIDES DERIVED FROM TYPE IV COLLAGEN” (ASCLEPIX THERAPEUTICS, INC., priority 2022, published 2026).

Assays:
[1] = In vitro gel formation in mock vitreous and homogenization; type: physicochemical
Experimental: In alternative embodiments, microparticles can be prepared and fragmented. For example, a vitreous-like solution (“mock vitreous”) was prepared with sodium hyaluronate and used for in vitro pre-fragmented gel formation experiments. The AXT107 peptide solution is added to the mock vitreous, upon which the peptide forms a gel.

[2] = aqueous solution administered into vitreous from animals and people; cited from earlier work

Sequence: LRRFSTAPFAFIDINDVINF [AXT107]
- product of homogenization of gel ([1]; gels homogenized after formation in mock vitreous): suspended microparticles comparable to those formed in excipient formulation with mixing
- gel formation in mock vitreous ([1]; mock vitreous with sodium hyaluronate): forms a gel
- gel formation in vitreous [2]: precipitate to form a gel-like substance
